Data on 5 molecules can be found in US20130184160, “NUCLEOTIDES AND APTAMERS CONTAINING BORONIC ACID GROUPS HAVING BIASED BINDING TO GLYCOSYLATED PROTEINS, AND USES THEREOF” (published 2013).

Data set [1] deals with T1, Fetuin (UniProt P12763 P12763:19-359).
T1 sequence: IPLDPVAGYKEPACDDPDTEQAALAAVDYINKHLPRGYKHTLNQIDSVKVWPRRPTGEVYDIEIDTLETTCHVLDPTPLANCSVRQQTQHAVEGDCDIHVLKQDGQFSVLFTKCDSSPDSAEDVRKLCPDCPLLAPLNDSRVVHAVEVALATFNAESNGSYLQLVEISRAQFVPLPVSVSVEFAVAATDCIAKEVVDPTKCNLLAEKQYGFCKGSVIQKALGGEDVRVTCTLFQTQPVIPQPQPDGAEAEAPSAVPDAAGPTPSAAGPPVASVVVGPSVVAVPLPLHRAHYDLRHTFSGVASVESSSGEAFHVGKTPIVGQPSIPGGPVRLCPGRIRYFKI
Nature of the data set: filter; specificity control. The conditions noted are these: label: alpha-32P-dATP.

Data set [2] concerns the target Alpha-1 acid glycoprotein (UniProt P02763 P02763:19-201). Nature of the data set: filter; specificity control. Conditions: label: alpha-32P-dATP.
For data set [3], the target named is T2, Fibrinogen (glycosylated, untreated) (UniProt P02671-2;P02675;P02679 P02671-2:20-644,P02675:31-491,P02679:27-453). Briefly: filter; same buffer; 102 nM in Table 1. The conditions noted are these: chain copies: 2; label: alpha-32P-dATP. On the procedure:
(§1) Dissociation constants in solution were determined by equilibrium filtration (Jenison et al., Science 1994, 263, 1425-1429; Huang & Szostak, RNA 2003, 9: 1456-1463, incorporated herein by reference in their entireties). Using this technique, the bound and unbound ligand (DNA) partition between the two portions separated by a membrane. DNA was first amplified into dsDNA using two primers by PCR (25 cycles of 0.5 min at 94° C., 0.5 min at 46° C., and 0.5 min at 72° C., followed by 5 min at 72° C.). The dsDNA product was then split into ssDNA using one primer and α-³²P-dATP by one-round PCR. The ³²P-labeled ssDNA ligand (10 nM) and the protein (1-1000 nM) in the 100 μL of binding buffer were incubated for 15 min at 25° C. prior to loading into the Microcon YM-100 unit (Millipore, Billerica, Mass.). The solution was centrifuged at 13,000 g for 10 sec to saturate the membrane, and the filtrate was transferred back to the unit. […] Aliquots (10 μL) were taken from both the remaining solution and the filtrate, and radioactivity in each aliquot was determined by Beckman LS 6500 liquid scintillation counter. […]
(§2) To determine the extent to which the aptamers 85A (SEQ ID NO.: 13), 85B (SEQ ID NO.: 14), and 85C (SEQ ID NO.: 15) bind specifically to fibrinogen, their dissociation constants (Kd) were measured using the equilibrium filtration method with radiolabeled α-³²P-dATP. […]

Data set [4] deals with Fibrinogen, deglycosylated (UniProt P02671-2;P02675;P02679 P02671-2:20-644,P02675:31-491,P02679:27-453). Nature of the data set: filter; same buffer. The conditions noted are these: tags: chemically deglycosylated with TFMS; chain copies: 2; label: alpha-32P-dATP. The method, then: (§3) Dissociation constants in solution were determined by equilibrium filtration (Jenison et al., Science 1994, 263, 1425-1429; Huang & Szostak, RNA 2003, 9: 1456-1463, incorporated herein by reference in their entireties). Using this technique, the bound and unbound ligand (DNA) partition between the two portions separated by a membrane. DNA was first amplified into dsDNA using two primers by PCR (25 cycles of 0.5 min at 94° C., 0.5 min at 46° C., and 0.5 min at 72° C., followed by 5 min at 72° C.). The dsDNA product was then split into ssDNA using one primer and α-³²P-dATP by one-round PCR. The ³²P-labeled ssDNA ligand (10 nM) and the protein (1-1000 nM) in the 100 μL of binding buffer were incubated for 15 min at 25° C. prior to loading into the Microcon YM-100 unit (Millipore, Billerica, Mass.). The solution was centrifuged at 13,000 g for 10 sec to saturate the membrane, and the filtrate was transferred back to the unit. The solution was centrifuged for another 20 sec, and the filtrate (about 10 μL) was collected. Aliquots (10 μL) were taken from both the remaining solution and the filtrate, and radioactivity in each aliquot was determined by Beckman LS 6500 liquid scintillation counter. All binding assays were duplicated. The equilibrium dissociation constants (Kd) of the ligand-protein interaction were obtained by fitting the dependence of bound fractions of specific binding on the concentration of the […] to the equation Y=B max X/(Kd+X), using the SigmaPlot program.
(§4) To determine the extent to which the aptamers 85A (SEQ ID NO.: 13), 85B (SEQ ID NO.: 14), and 85C (SEQ ID NO.: 15) bind specifically to fibrinogen, their dissociation constants (Kd) were measured using the equilibrium filtration method with radiolabeled α-³²P-dATP. The target substrate to which the aptamer was binding was fibrinogen (FIG. 12A), deglycosylated fibrinogen (FIG. 12B) and periodated fibrinogen (FIG. 12C).

The target of data set [5] is Fibrinogen, periodate-treated (UniProt P02671-2;P02675;P02679 P02671-2:20-644,P02675:31-491,P02679:27-453). Briefly: filter; same buffer. The conditions noted are these: tags: glycans oxidised with sodium periodate; chain copies: 2; label: alpha-32P-dATP. The method, then:
as §3, §4

Data set [6] addresses T2, Fibrinogen (glycosylated, untreated). Briefly: filter; same buffer. The conditions noted are these: chain copies: 2; label: alpha-32P-dATP. The method, then:
as §3, §4

Data set [7] shares this target. Nature of the data set: filter; same buffer; boronic acid destroyed by peroxide. The conditions noted are these: chain copies: 2; label: alpha-32P-dATP.
Data set [8] has the same target. Briefly: filter; same buffer; 193 nM in Table 1. Conditions: chain copies: 2; label: alpha-32P-dATP. The method, then: as §1, §2
Data set [9] shares this target. Briefly: filter; same buffer; 64 nM in Table 1. Conditions: chain copies: 2; label: alpha-32P-dATP. The method, then:
as §1, §2

T2 sequence (P02671 other isoform, or with tags, fused parts or gaps, chain 1 of 3): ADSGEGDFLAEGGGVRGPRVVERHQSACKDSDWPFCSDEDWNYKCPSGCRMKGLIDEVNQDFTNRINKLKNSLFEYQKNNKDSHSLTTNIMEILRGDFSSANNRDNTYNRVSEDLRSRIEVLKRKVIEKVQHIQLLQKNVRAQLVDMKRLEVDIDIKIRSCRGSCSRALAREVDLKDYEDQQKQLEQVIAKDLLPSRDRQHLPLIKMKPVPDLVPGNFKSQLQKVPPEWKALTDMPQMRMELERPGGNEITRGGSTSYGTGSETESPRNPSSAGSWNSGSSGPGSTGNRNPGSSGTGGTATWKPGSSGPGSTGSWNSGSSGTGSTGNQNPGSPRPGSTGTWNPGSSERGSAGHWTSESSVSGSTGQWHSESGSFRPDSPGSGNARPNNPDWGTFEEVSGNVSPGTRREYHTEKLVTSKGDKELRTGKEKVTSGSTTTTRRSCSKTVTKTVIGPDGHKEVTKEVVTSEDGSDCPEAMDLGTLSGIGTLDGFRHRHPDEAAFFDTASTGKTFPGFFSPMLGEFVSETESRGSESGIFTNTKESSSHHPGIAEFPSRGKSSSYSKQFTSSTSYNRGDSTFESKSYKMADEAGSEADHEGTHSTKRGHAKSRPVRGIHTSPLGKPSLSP
T2 sequence (P02675 31-491, chain 2 of 3): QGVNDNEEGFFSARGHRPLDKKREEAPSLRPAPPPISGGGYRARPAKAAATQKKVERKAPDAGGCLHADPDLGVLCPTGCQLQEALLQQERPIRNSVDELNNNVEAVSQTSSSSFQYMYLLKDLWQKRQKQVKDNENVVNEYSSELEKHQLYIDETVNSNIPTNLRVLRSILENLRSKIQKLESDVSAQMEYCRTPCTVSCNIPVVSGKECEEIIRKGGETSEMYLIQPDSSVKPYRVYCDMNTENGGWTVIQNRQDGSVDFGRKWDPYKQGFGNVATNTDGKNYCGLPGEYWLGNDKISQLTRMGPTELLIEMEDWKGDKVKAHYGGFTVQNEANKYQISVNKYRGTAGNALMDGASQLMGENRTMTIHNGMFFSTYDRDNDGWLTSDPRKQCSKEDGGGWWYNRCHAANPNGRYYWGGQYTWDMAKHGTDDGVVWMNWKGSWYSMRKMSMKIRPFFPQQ
T2 sequence (P02679 27-453, chain 3 of 3): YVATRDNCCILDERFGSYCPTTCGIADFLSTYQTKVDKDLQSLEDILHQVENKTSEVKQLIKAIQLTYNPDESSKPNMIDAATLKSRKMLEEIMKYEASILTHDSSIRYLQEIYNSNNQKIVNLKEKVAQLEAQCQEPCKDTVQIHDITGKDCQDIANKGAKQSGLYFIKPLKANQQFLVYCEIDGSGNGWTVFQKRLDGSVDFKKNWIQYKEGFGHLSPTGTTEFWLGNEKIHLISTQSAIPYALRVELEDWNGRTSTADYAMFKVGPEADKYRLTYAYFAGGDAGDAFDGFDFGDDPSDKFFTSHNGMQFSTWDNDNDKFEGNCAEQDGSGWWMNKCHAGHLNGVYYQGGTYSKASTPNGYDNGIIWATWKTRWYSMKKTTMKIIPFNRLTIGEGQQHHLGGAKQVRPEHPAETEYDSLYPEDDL
Fibrinogen, periodate-treated, sequence (P02671 other isoform, or with tags, fused parts or gaps, chain 1 of 3): as the sequence (P02671 other isoform, or with tags, fused parts or gaps, chain 1 of 3) above
Fibrinogen, periodate-treated, sequence (P02675 31-491, chain 2 of 3): as the sequence (P02675 31-491, chain 2 of 3) above
Fibrinogen, periodate-treated, sequence (P02679 27-453, chain 3 of 3): as the sequence (P02679 27-453, chain 3 of 3) above
Fibrinogen, deglycosylated, sequence (P02671 other isoform, or with tags, fused parts or gaps, chain 1 of 3): as the sequence (P02671 other isoform, or with tags, fused parts or gaps, chain 1 of 3) above
Fibrinogen, deglycosylated, sequence (P02675 31-491, chain 2 of 3): as the sequence (P02675 31-491, chain 2 of 3) above
Fibrinogen, deglycosylated, sequence (P02679 27-453, chain 3 of 3): as the sequence (P02679 27-453, chain 3 of 3) above
Alpha-1 acid glycoprotein, sequence (P02763 19-201, one chain of several): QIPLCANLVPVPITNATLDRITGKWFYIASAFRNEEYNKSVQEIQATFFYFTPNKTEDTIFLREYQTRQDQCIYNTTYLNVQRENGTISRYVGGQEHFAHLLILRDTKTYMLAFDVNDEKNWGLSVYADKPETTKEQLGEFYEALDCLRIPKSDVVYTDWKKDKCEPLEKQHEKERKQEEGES

B1: 85A TTP (ssDNA)
DNA: CCTTCGTTGTCTGCCTTCGTAGCGGATCGAATTACGCGTTAACGGCAACCGATAACGGGACCGATTGCACACCCTTCAGAATTCGCACCA
With B1, the Kd in [1] turned out to be 1600 nM; in data set [2] it was 600 nM; in data set [3] it was 102 nM; in data set [4] it was 60.2 nM; in [5], 67.4 nM.

B2: 85A M-TTP (ssDNA)
DNA: B1 DNA
modifications: T positions from M-TTP (alkyne-modified dU without boronic acid)
In turn, B2 came in with a Kd in data set [6] of 138 nM.

B3: 85A B-TTP H2O2-treated (ssDNA)
DNA: B1 DNA
modifications: B-TTP positions with boronic acid oxidised by peroxide
On to B3, for which the Kd in data set [7] is 173 nM.

B4: 85C TTP (ssDNA)
DNA: CCTTCGTTGTCTGCCTTCGTAGTCGACTCTGACGCATGGACGTATCCTGTGCGTATGCATTATGAAGCACACCCTTCAGAATTCGCACCA
In the case of B4, the Kd in data set [8] was 122 nM; in data set [4] it was 256 nM; in data set [5], 321 nM.

B5: 85B TTP (ssDNA)
DNA: CCTTCGTTGTCTGCCTTCGTAGGACCGCAGACATCGACGCAGGGAAATTCCGCAAGTCCAGCCAAATGCCACCCTTCAGAATTCGCACCA
For B5, the Kd was found to be 63.8 nM in data set [9], 140 nM in data set [4] and 130 nM in data set [5].

The term Kd denotes the equilibrium constant for the complex coming apart.
